Experimental data published in US20240093191A1, “COMPOSITIONS AND METHODS FOR TREATING DISEASE ASSOCIATED WITH DUX4 OVEREXPRESSION” (RESEARCH INSTITUTE AT NATIONWIDE CHILDREN'S HOSPITAL, priority 2021, published 2024).

Tested on: CDC6
Assay: QPCR of CDC6 in transfected HEK293 cells
Type: cell-based, human
Conditions: 48 h, relative to U6.milacZ
Method: The expression of SMAD1, SMAD5 and CDC6 was measured by QPCR in HEK293 cells using TaqMan probes specific to each investigated gene. To do that, U6.milacZ (negative control), H1.mir-675, U6.mir-675-3p or U6.mir-675-5p expressing constructs were transfected into HEK293 cells, and total RNA was extracted 48h after transfection. As a result, U6.mir-675-3p reduced SMAD1 levels by an average of 32±6% (P<0.044, ANOVA, N=3) and SMAD5 levels by an average of 35±6% (P<0.0013, ANOVA, N=3). On the other hand, H1.mir-675 and U6.mir-675-5p repressed CDC6 levels by an average of 38±4% (P<0.0034, ANOVA, N=3) and 36±7% (P<0.0048, ANOVA, N=3), respectively. Results were reported as relative gene expression (ΔΔCq)±SEM of three replicates (N=3) relative to gene expression in cells transfected with U6.milacZ, with each QPCR assay performed in triplicate. All results were quantified using as reference gene the house keeping gene RPL13A.
Along with a previous study showing the beneficial effect of mir-675 on regeneration and differentiation of injured mouse skeletal muscles [Dey et al., Genes Dev. […] QPCR was used to measure the expression of SMAD1, SMAD5 and CDC6 in HEK293 cells using TaqMan probes specific to each investigated gene. […] All results were quantified using as reference gene the house keeping gene RPL13A. […]

B1: H1.mir-675: commercially available H1 promoter mir-675 expression plasmid (SBI Biosciences) (nucleic acid)
DNA: GAACGCTGACGTCATCAACCCGCTCCAAGGAATCGCGGGCCCAGTGTCACTAGGCGGGAACACCCAGCGCGCGTGCGCCCTGGCAGGAAGATGGCTGTGAGGGACAGGGGAGTGGCGCCCTGCAATATTTGCATGTCGCTATGTGTTCTGGGAAATCACCATAAACGTGAAATGTCTTTGGATTTGGGAATCTTATAAGTTCTGTATGAGACCACCCCCCAGGGTCTGGTGCGGAGAGGGCCCACAGTGGACTTGGTGACGCTGTATGCCCTCACCGCTCAGCCCCTGGGGAATTCTTCGATTCTGCTTTTTT
Q: For B1, which “repression of CDC6 levels” value is on record?
A: 38±4%
